Legend:
[1] = biological target: SARS-CoV-2 spike glycoprotein S1 subunit (SARS-CoV-2, UniProt P0DTC2 14-685); assay: BLI
[2] = biological target: SARS-CoV-2 spike glycoprotein receptor-binding domain (SARS-CoV-2, UniProt P0DTC2 319-541); assay: BLI

B1: angiotensin-converting enzyme 2 (ACE2) protein, purified (receptor)
chain: QSTIEEQAKTFLDKFNHEAEDLFYQSSLASWNYNTNITEENVQNMNNAGEKWSAFLKEQSTLAQMYPLQEIQNLTVKLQLQALQQNGSSVLSEDKSKRLNTILNTMSTIYSTGKVCNPNNPQECLLLDPGLNEIMEKSLDYNERLWAWEGWRSEVGKQLRPLYEEYVVLKNEMARANHYKDYGDYWRGNYEVNGVDGYDYNRDQLIEDVERTFEEIKPLYEHLHAYVRAKLMNAYPSYISPTGCLPAHLLGDMWGRFWTNLYSLTVPFGQKPNIDVTDAMVNQAWNAQRIFKEAEKFFVSVGLPNMTQGFWENSMLTDPGNVQKVVCHPTAWDLGKGDFRIIMCTKVTMDDFLTAHHEMGHIQYDMAYAAQPFLLRNGANEGFHEAVGEIMSLSAATPKHLKSIGLLSPDFQEDNETEINFLLKQALTIVGTLPFTYMLEKWRWMVFKGEIPKDQWMKKWWEMKREIVGVVEPVPHDETYCDPASLFHVSNDYSFIRYYTRTLYQFQFQEALCQAAKHEGPLHKCDISNSTEAGQKLLNMLKLGKSEPWTLALENVVGAKNMNVRPLLNYFEPLFTWLKDQNKNSFVGWSTDWSPYADQSIKVRISLKSALGDKAYEWNDNEMYLFRSSVAYAMRTYFLEIKHQTILFGEEDVRVADLKPRISFNFYVTAPKNVSDIIPRTEVEEAIRISRSRINDAFRLNDNSLEFLGIQTTLAPPYQSPVT
Kd [1]: 146 nM | Kd [2]: 149 nM

— article PMC7486399 (2020)
